Test results as given in the supplement of paper PMC9112550, “Optimization of the antimicrobial peptide Bac7 by deep mutational scanning” (BMC Biology, 2022).

Test system: Escherichia coli TOP10
Test: shrunken log2 fold change of peptide-encoding DNA abundance (4.5 h post-induction vs induction); higher = less antimicrobial activity (less host growth inhibition)
Conditions: time post-induction: 4.5 h; library: site-saturation at positions 5, 18, 19, 20
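Also: peptides expressed intracellularly from a pBAD plasmid library in pooled LB shake-flask culture, induced with 0.3% L-arabinose, DNA abundance read by NGS, three biological replicates, DESeq2 with apeglm shrinkage.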

RRIRGRPPRLPRPRPRPNYVPRP
shrunken log2 fold change: 0.216

RRIRERPPRLPRPRPRPMLYPRP
shrunken log2 fold change: -0.222

RRIRFRPPRLPRPRPRPDDRPRP
shrunken log2 fold change: 0.00835

RRIRMRPPRLPRPRPRPSLSPRP
shrunken log2 fold change: 0.22

RRIRVRPPRLPRPRPRPNNRPRP
shrunken log2 fold change: -0.276

RRIRIRPPRLPRPRPRPNKPPRP
shrunken log2 fold change: -0.119

RRIRNRPPRLPRPRPRPDTLPRP
shrunken log2 fold change: -0.0286

RRIRYRPPRLPRPRPRPPMWPRP
shrunken log2 fold change: 0.53

RRIRKRPPRLPRPRPRPDNVPRP
shrunken log2 fold change: -0.0064

RRIRERPPRLPRPRPRPRPWPRP
shrunken log2 fold change: 0.298

RRIRCRPPRLPRPRPRPDRLPRP
shrunken log2 fold change: -0.335

RRIRHRPPRLPRPRPRPYCDPRP
shrunken log2 fold change: -0.313

RRIRNRPPRLPRPRPRPYREPRP
shrunken log2 fold change: 0.0155

RRIRPRPPRLPRPRPRPYMFPRP
shrunken log2 fold change: -0.897

RRIRRRPPRLPRPRPRPEFIPRP
shrunken log2 fold change: -0.0197

RRIRERPPRLPRPRPRPSSPPRP
shrunken log2 fold change: -0.824

RRIRARPPRLPRPRPRPGKCPRP
shrunken log2 fold change: 0.0981

RRIRCRPPRLPRPRPRPYPHPRP
shrunken log2 fold change: -0.438

RRIRNRPPRLPRPRPRPNSDPRP
shrunken log2 fold change: -0.073

RRIRSRPPRLPRPRPRPTACPRP
shrunken log2 fold change: 0.249

RRIRFRPPRLPRPRPRPYLQPRP
shrunken log2 fold change: -0.527

RRIRERPPRLPRPRPRPKSIPRP
shrunken log2 fold change: -0.323

RRIRKRPPRLPRPRPRPTHFPRP
shrunken log2 fold change: -0.105

RRIRIRPPRLPRPRPRPFCPPRP
shrunken log2 fold change: -0.463

RRIRRRPPRLPRPRPRPVIHPRP
shrunken log2 fold change: -0.0832

RRIRERPPRLPRPRPRPKVHPRP
shrunken log2 fold change: -0.196

RRIRFRPPRLPRPRPRPGCAPRP
shrunken log2 fold change: 1.03

RRIRFRPPRLPRPRPRPKCMPRP
shrunken log2 fold change: -0.967

RRIRMRPPRLPRPRPRPSSMPRP
shrunken log2 fold change: -0.0815

RRIRRRPPRLPRPRPRPLLNPRP
shrunken log2 fold change: -0.00444

RRIRTRPPRLPRPRPRPKGLPRP
shrunken log2 fold change: -0.117

RRIRERPPRLPRPRPRPEYVPRP
shrunken log2 fold change: -0.0151

RRIRWRPPRLPRPRPRPQDPPRP
shrunken log2 fold change: 0.0126

RRIRRRPPRLPRPRPRPEKVPRP
shrunken log2 fold change: 0.448

RRIRNRPPRLPRPRPRPNADPRP
shrunken log2 fold change: -0.194

RRIRYRPPRLPRPRPRPLHVPRP
shrunken log2 fold change: -0.21

RRIRARPPRLPRPRPRPDPIPRP
shrunken log2 fold change: -0.521

RRIRTRPPRLPRPRPRPLSIPRP
shrunken log2 fold change: -0.487

RRIRDRPPRLPRPRPRPLCIPRP
shrunken log2 fold change: 0.162

RRIRHRPPRLPRPRPRPDFLPRP
shrunken log2 fold change: -0.0554

RRIRHRPPRLPRPRPRPCMLPRP
shrunken log2 fold change: -0.151

RRIRMRPPRLPRPRPRPLIAPRP
shrunken log2 fold change: 0.34

RRIRCRPPRLPRPRPRPSWLPRP
shrunken log2 fold change: -0.547

RRIRHRPPRLPRPRPRPMYQPRP
shrunken log2 fold change: -0.00419

RRIRCRPPRLPRPRPRPTLVPRP
shrunken log2 fold change: 0.12

RRIRSRPPRLPRPRPRPGHFPRP
shrunken log2 fold change: -0.0564

RRIRARPPRLPRPRPRPNELPRP
shrunken log2 fold change: 0.343

RRIRWRPPRLPRPRPRPTQIPRP
shrunken log2 fold change: 0.132

RRIRIRPPRLPRPRPRPIYDPRP
shrunken log2 fold change: -0.471

RRIRQRPPRLPRPRPRPTQSPRP
shrunken log2 fold change: 0.375

RRIRHRPPRLPRPRPRPDNMPRP
shrunken log2 fold change: 3.69

RRIRFRPPRLPRPRPRPWVMPRP
shrunken log2 fold change: -0.258

RRIRDRPPRLPRPRPRPMDIPRP
shrunken log2 fold change: 0.0403

RRIRYRPPRLPRPRPRPMQGPRP
shrunken log2 fold change: -0.0463

RRIRGRPPRLPRPRPRPDIVPRP
shrunken log2 fold change: 0.192

RRIRTRPPRLPRPRPRPIHYPRP
shrunken log2 fold change: -0.356

RRIRMRPPRLPRPRPRPWYHPRP
shrunken log2 fold change: -0.00277

RRIRCRPPRLPRPRPRPPWKPRP
shrunken log2 fold change: 0.195

RRIRDRPPRLPRPRPRPGWWPRP
shrunken log2 fold change: 0.227

RRIRDRPPRLPRPRPRPNYSPRP
shrunken log2 fold change: -0.792

RRIRFRPPRLPRPRPRPKDNPRP
shrunken log2 fold change: -0.000409

RRIRARPPRLPRPRPRPIDCPRP
shrunken log2 fold change: 0.335

RRIRLRPPRLPRPRPRPKCHPRP
shrunken log2 fold change: -0.387

RRIRRRPPRLPRPRPRPGFWPRP
shrunken log2 fold change: 0.333

RRIRERPPRLPRPRPRPPLLPRP
shrunken log2 fold change: -0.0533

RRIRLRPPRLPRPRPRPQTKPRP
shrunken log2 fold change: -0.201

RRIRERPPRLPRPRPRPGYAPRP
shrunken log2 fold change: -0.102

RRIRYRPPRLPRPRPRPCKFPRP
shrunken log2 fold change: -0.931

RRIRARPPRLPRPRPRPHEVPRP
shrunken log2 fold change: 0.101

RRIRMRPPRLPRPRPRPVFEPRP
shrunken log2 fold change: 0.59

RRIRERPPRLPRPRPRPRTDPRP
shrunken log2 fold change: 0.193

RRIRHRPPRLPRPRPRPCHDPRP
shrunken log2 fold change: 0.0948

RRIRNRPPRLPRPRPRPDTKPRP
shrunken log2 fold change: -0.0152

RRIRIRPPRLPRPRPRPLECPRP
shrunken log2 fold change: 0.0303

RRIRQRPPRLPRPRPRPMKDPRP
shrunken log2 fold change: -0.447

RRIRQRPPRLPRPRPRPVKYPRP
shrunken log2 fold change: -0.067

RRIRIRPPRLPRPRPRPSAKPRP
shrunken log2 fold change: -0.0328

RRIRERPPRLPRPRPRPLKVPRP
shrunken log2 fold change: -0.0726

RRIRTRPPRLPRPRPRPNNLPRP
shrunken log2 fold change: -0.252

RRIRHRPPRLPRPRPRPGGWPRP
shrunken log2 fold change: 1.47

RRIRRRPPRLPRPRPRPFKNPRP
shrunken log2 fold change: 0.0357

RRIRWRPPRLPRPRPRPPRAPRP
shrunken log2 fold change: 0.782

RRIRTRPPRLPRPRPRPNIYPRP
shrunken log2 fold change: 0.0647

RRIRLRPPRLPRPRPRPRQDPRP
shrunken log2 fold change: 0.152

RRIRRRPPRLPRPRPRPCHYPRP
shrunken log2 fold change: 0.00952

RRIRHRPPRLPRPRPRPWKLPRP
shrunken log2 fold change: -0.185

RRIRVRPPRLPRPRPRPTWCPRP
shrunken log2 fold change: 0.216

RRIRARPPRLPRPRPRPQCHPRP
shrunken log2 fold change: 0.441

RRIRRRPPRLPRPRPRPKTSPRP
shrunken log2 fold change: 2.22

RRIRERPPRLPRPRPRPENPPRP
shrunken log2 fold change: 0.142

RRIRERPPRLPRPRPRPSPQPRP
shrunken log2 fold change: -0.0688

RRIRSRPPRLPRPRPRPWPWPRP
shrunken log2 fold change: 0.0913

RRIRLRPPRLPRPRPRPNKNPRP
shrunken log2 fold change: -0.366

RRIRQRPPRLPRPRPRPYQDPRP
shrunken log2 fold change: 0.00682

RRIRVRPPRLPRPRPRPCQGPRP
shrunken log2 fold change: -0.226

RRIRWRPPRLPRPRPRPDRVPRP
shrunken log2 fold change: 0.0957

RRIRHRPPRLPRPRPRPWLAPRP
shrunken log2 fold change: -0.26

RRIRCRPPRLPRPRPRPYMTPRP
shrunken log2 fold change: -1.06

RRIRGRPPRLPRPRPRPMPVPRP
shrunken log2 fold change: 0.447

RRIRWRPPRLPRPRPRPRMDPRP
shrunken log2 fold change: 0.211

RRIRSRPPRLPRPRPRPPPSPRP
shrunken log2 fold change: 0.785

RRIRGRPPRLPRPRPRPNVCPRP
shrunken log2 fold change: -0.237

RRIRHRPPRLPRPRPRPLLNPRP
shrunken log2 fold change: -0.443

RRIRFRPPRLPRPRPRPMALPRP
shrunken log2 fold change: -0.706

RRIRDRPPRLPRPRPRPVYTPRP
shrunken log2 fold change: -0.0405

RRIRERPPRLPRPRPRPMEYPRP
shrunken log2 fold change: -0.00776

RRIRYRPPRLPRPRPRPLNTPRP
shrunken log2 fold change: -0.234

RRIRWRPPRLPRPRPRPIITPRP
shrunken log2 fold change: -0.827

RRIRFRPPRLPRPRPRPLKIPRP
shrunken log2 fold change: -0.24

RRIRCRPPRLPRPRPRPKKRPRP
shrunken log2 fold change: 0.156

RRIRGRPPRLPRPRPRPVNGPRP
shrunken log2 fold change: -0.0658

RRIRVRPPRLPRPRPRPRDTPRP
shrunken log2 fold change: -0.0483

RRIRNRPPRLPRPRPRPFSSPRP
shrunken log2 fold change: -0.0316

RRIRYRPPRLPRPRPRPQTGPRP
shrunken log2 fold change: -0.288

RRIRARPPRLPRPRPRPQGGPRP
shrunken log2 fold change: 0.499

RRIRHRPPRLPRPRPRPRERPRP
shrunken log2 fold change: 0.392

RRIRHRPPRLPRPRPRPLVPPRP
shrunken log2 fold change: -0.0575

RRIRLRPPRLPRPRPRPKSMPRP
shrunken log2 fold change: -0.0449

RRIRVRPPRLPRPRPRPFSKPRP
shrunken log2 fold change: -0.138

RRIRFRPPRLPRPRPRPKATPRP
shrunken log2 fold change: -0.061

RRIRHRPPRLPRPRPRPNAFPRP
shrunken log2 fold change: -0.14

RRIRFRPPRLPRPRPRPGEKPRP
shrunken log2 fold change: 0.084

RRIRMRPPRLPRPRPRPGFQPRP
shrunken log2 fold change: 0.151

RRIRYRPPRLPRPRPRPCYNPRP
shrunken log2 fold change: -0.857

RRIRTRPPRLPRPRPRPYIKPRP
shrunken log2 fold change: -1.22
